Experiments:
[1] = target: DREN-APAZ protein of the NbaSPARDA system, strep-tagged (Novosphingopyxis baekryungensis); assay: cryo-EM structure; active complex: NbaSPARDA with gRNA and 21-nt tDNA (1:1.2:1.2), 0.2 mg/mL; filament, 3.18 Å
[2] = target: DREN-APAZ protein of the NbaSPARDA system, strep-tagged (Novosphingopyxis baekryungensis); assay: cryo-EM structure; substrate-bound complex: NbaSPARDA with gRNA, 21-nt tDNA and substrate ssDNA, 0.16 mg/mL; filament, 3.19 Å
[3] = target: NbaSPARDA complex (heterodimer of NbaAgo and DREN-APAZ), wild type (Novosphingopyxis baekryungensis); assay: cryo-EM structure; active complex: NbaSPARDA with gRNA and 21-nt tDNA (1:1.2:1.2), 0.2 mg/mL; filament, 3.18 Å
[4] = target: NbaSPARDA complex (heterodimer of NbaAgo and DREN-APAZ), wild type (Novosphingopyxis baekryungensis); assay: cryo-EM structure; guide-bound complex: NbaSPARDA with 20-nt 5'-phosphorylated gRNA (1:1.2, 25 °C, 15 min), 0.4 mg/mL, buffer F (20 mM Tris-HCl pH 8.0, 200 mM NaCl, 2 mM DTT, 2 mM MgCl2); 2.93 Å, C2 symmetry

DREN-APAZ protein of the NbaSPARDA system, strep-tagged (natural protein)
stoichiometry N [1]: 4 | stoichiometry N [2]: 4

NbaSPARDA complex (heterodimer of NbaAgo and DREN-APAZ), wild type
stoichiometry N [3]: 32 copies | stoichiometry N [4]: 2

From PMC12205087
